Assay in all cases: G' assay
In assay [1] the target is T1, GST-MINT1 PDZ domains 1, 2, Q02410.
T1 chain: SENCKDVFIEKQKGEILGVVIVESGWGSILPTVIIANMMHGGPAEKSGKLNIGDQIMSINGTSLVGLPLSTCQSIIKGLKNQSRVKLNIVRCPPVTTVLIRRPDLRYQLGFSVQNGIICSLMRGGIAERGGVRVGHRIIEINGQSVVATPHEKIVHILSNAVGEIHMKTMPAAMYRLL

Assay [2] has as its target T2, GST-PTPL1 PDZ domain 4 (Homo sapiens (Human)), Q12923.
T2 chain: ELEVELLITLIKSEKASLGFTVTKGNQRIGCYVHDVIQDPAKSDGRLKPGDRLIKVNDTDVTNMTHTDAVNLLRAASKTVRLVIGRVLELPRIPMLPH

Assay [3] has as its target T3, GST-KIAA0807(S) PDZ domain 1 (Homo sapiens (Human)), Q6P0Q8.
T3 chain: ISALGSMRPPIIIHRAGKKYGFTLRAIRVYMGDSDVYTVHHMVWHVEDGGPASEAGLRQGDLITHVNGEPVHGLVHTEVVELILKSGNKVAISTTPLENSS

For assay [4], the target named is GST-KIAA807 [GST: P08515].
Chain of GST-KIAA807 [GST: P08515] (P08515 whole entry, the tested form may be a part): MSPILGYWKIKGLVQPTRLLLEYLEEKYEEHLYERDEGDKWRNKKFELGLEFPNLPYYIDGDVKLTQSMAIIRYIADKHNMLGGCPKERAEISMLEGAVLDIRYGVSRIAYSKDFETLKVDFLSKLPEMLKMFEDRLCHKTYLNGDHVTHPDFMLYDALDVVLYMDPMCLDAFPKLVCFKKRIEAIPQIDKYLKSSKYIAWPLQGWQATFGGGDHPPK
Assay [5] has as its target T4, GST-Shank 1 PDZ domain 1 (Homo sapiens (Human)), Q9UPX8.
T4 chain: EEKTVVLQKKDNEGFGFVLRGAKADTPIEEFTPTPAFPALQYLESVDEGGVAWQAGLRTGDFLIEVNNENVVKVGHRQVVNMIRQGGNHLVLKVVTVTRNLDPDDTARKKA

The target of assay [6] is T5, GST-TIP1 PDZ domain 1 (Table 9 insert) (Homo sapiens (Human)), O14907.
T5 chain: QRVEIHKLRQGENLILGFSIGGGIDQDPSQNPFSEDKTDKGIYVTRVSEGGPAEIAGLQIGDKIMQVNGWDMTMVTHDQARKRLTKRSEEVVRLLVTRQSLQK

Assay [7] has as its target T6, GST-APXL-1 PDZ domain 1 (Homo sapiens (Human)), Q13796.
T6 chain: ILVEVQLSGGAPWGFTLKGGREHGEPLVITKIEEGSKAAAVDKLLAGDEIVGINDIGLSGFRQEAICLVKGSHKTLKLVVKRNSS

The target in assay [8] is GST-PAR3 PDZ domain 3 (Homo sapiens (Human)), Q8TEW0.
Chain of GST-PAR3 PDZ domain 3 (Homo sapiens (Human)), Q8TEW0 (Q8TEW0 579-681): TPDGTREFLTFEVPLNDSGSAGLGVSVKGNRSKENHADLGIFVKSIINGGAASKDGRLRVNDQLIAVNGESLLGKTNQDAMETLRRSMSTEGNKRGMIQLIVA
Assay [9] has as its target T7, GST-INADL PDZ domain 8 (Homo sapiens (Human)), Q8NI35.
T7 chain: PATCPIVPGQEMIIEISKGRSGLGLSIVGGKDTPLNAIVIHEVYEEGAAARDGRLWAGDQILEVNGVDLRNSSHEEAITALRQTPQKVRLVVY

For assay [10], the target named is T8, GST-MUPP1 PDZ domain 10 (Homo sapiens (Human)), O75970.
T8 chain: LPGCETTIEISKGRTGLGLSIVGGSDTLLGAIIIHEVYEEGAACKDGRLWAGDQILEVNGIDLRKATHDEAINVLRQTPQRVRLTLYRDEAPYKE

The target in assay [11] is T9, GST-KIAA0382 PDZ domain 1 (Canis lupus familiaris (Dog) (Canis familiaris)), A0A8I3.
T9 chain: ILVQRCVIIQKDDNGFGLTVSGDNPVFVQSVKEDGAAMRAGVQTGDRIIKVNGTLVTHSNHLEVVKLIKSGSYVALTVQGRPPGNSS

Assay [12] has as its target T10, GST-AIPC PDZ domain 1 (Homo sapiens (Human)), O15018.
T10 chain: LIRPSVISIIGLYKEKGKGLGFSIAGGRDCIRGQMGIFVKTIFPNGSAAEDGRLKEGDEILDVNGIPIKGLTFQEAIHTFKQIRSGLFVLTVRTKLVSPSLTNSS

Assay [13] concerns the target T11, GST-KIAA1526 PDZ domain 1 (Homo sapiens (Human)), Q9P202.
T11 chain: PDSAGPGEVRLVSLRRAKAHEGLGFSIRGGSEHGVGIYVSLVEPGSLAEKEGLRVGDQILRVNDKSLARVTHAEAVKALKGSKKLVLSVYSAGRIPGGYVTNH

Assay [14] addresses GST-BAI-1 Associated Protein PDZ domain 2 (Mus musculus (Mouse)), Q6RHR9.
For assay [15], the target named is T12, GST-KIAA0973 PDZ domain 1 (Homo sapiens (Human)), Q9Y2H9.
T12 chain: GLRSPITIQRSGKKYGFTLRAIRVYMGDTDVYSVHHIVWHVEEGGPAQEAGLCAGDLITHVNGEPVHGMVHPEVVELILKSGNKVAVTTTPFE

Assay [16] deals with GST-DLG1 PDZ domains 1, 2 (Homo sapiens), Q12959.
For assay [17], the target named is T13, GST-KIAA1634 PDZ domain 2 (Homo sapiens (Human)), Q5TCQ9.
T13 chain: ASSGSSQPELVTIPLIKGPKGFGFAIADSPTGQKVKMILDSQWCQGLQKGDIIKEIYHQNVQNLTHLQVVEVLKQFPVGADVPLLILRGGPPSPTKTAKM

Assay [18] concerns the target T14, GST-NeDLG PDZ domains 1, 2, Q92796.
T14 chain: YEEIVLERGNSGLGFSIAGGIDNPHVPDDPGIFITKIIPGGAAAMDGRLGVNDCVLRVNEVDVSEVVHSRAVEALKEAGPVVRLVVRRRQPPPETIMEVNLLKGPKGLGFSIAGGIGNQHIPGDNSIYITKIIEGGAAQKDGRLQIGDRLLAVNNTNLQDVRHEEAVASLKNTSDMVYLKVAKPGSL

The target of assay [19] is GST-PSD95 PDZ domains 1, 2, 3 (Homo sapiens), P78352.
Chain of GST-PSD95 PDZ domains 1, 2, 3 (Homo sapiens), P78352 (P78352 62-395): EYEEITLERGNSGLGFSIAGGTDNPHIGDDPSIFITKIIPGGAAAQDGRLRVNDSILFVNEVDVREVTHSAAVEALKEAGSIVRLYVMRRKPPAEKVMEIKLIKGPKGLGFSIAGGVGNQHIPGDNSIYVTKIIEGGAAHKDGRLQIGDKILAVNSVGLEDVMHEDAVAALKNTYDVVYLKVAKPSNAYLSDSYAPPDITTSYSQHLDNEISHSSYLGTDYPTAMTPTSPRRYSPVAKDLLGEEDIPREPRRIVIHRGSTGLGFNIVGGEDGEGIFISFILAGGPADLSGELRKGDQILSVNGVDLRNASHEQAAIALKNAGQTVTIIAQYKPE
Assay [20] concerns the target T15, GST-PTPL1 PDZ domain 2 (Homo sapiens (Human)), Q12923.
T15 chain: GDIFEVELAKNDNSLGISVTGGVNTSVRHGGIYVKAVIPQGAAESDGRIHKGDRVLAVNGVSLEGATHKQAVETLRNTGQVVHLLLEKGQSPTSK

Assay [21] concerns the target T16, GST-DLG1 PDZ domain 2 (Homo sapiens), Q12959.
T16 chain: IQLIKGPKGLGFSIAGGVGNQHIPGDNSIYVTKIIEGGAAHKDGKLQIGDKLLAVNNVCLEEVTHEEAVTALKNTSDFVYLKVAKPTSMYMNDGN

Assay [22] concerns the target GST-KIAA1634 PDZ domain 1 (Homo sapiens (Human)), Q5TCQ9.
Assay [23] concerns the target GST-KIAA0147 PDZ domain 1 (Homo sapiens (Human)), Q14160.
The target in assay [24] is T17, GST-MINT1 PDZ domain 2 (Mus musculus (Mouse)), B2RUJ5.
T17 chain: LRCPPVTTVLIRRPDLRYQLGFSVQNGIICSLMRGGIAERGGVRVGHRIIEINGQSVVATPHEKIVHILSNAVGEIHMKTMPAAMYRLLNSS
Also: key of the grades not given here.

Chain of GST-KIAA1634 PDZ domain 1 (Homo sapiens (Human)), Q5TCQ9 (Q5TCQ9 401-502): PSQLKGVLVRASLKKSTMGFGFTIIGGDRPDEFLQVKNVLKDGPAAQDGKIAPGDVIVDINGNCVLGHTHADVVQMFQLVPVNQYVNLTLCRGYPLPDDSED
Chain of GST-BAI-1 Associated Protein PDZ domain 2 (Mus musculus (Mouse)), Q6RHR9 (Q6RHR9 455-558): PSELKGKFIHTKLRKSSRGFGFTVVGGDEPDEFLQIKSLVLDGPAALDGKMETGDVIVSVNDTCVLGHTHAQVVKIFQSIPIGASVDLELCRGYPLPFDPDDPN
Chain of GST-KIAA0147 PDZ domain 1 (Homo sapiens (Human)), Q14160 (Q14160 other isoform, or with tags, fused parts or gaps): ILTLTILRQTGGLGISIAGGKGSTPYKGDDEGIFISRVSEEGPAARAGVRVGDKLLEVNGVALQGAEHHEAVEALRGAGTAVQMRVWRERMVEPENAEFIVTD

B1: claudin 7 (peptide)
peptide: KAGYRAPRSYPKSNSSKEYV
modifications: not checked
As to B1, the Classification in [1] was 4 A450 class.

B2: RhoGAP 1 (PTPL1-associated) (peptide)
peptide: PRLKRMQQFEDLEDEIPQFV
modifications: not checked
In turn, B2 gave a Classification in [2] of 2 A450 class.

B3: CFTCR (cystic fibrosis transmembrane conductance regulator) (peptide)
peptide: KPQIAALKEETEEEVQDTRL
modifications: not checked
As for B3, the Classification in [3] is 2 A450 class; in assay [4], 1 A450 class; in assay [5], 1 A450 class.

B4: ropporin (peptide)
peptide: GPDGIITVNDFTQNPRVQLE
modifications: not checked
Molecule B4 came in with a Classification in [6] of 1 A450 class.

B5: C5 Anaphylatoxin receptor (peptide)
peptide: ESKSFTRSTVDTMAQKTQAV
modifications: not checked
For B5, in assay [2], the Classification was determined as 1 A450 class.

B6: parathyroid hormone receptor 2 (peptide)
peptide: RPMESNPDTEGAQGETEDVL
modifications: not checked
With B6, the Classification in [7] and in assay [8] was 1 A450 class in each case.

B7: serotonin receptor 5-HT-2C (peptide)
peptide: ENLELPVNPSSVVSERISSV
modifications: not checked
For the molecule B7, the Classification in [9] and in assay [10] was 1 A450 class each time.

B8: CDw128B (peptide)
peptide: KDSRPSFVGSSSGHTSTTL
modifications: not checked
Regarding B8, the Classification stood at 2 A450 class in assay [11], 5 A450 class in assay [3], 5 A450 class in assay [4] and 3 A450 class in assay [5].

B9: Clasp-1 (peptide)
peptide: VISKATPALPTVSISSSAEV
modifications: not checked
In the case of B9, the Classification in assay [12], in assay [3], in assay [4] and in assay [1] was 1 A450 class in each case.

B10: GAIP (G-alpha interacting protein) RGS 19 (peptide)
peptide: SSPTYRALLLQGPSQSSSEA
modifications: not checked
For B10, in assay [13], the Classification was found to be 1 A450 class.

B11: Clasp-5 (peptide)
peptide: RDSFHRSSFRKAETQLSQGS
modifications: not checked
Consider B11, for which the Classification in assay [14], in assay [3], in [4] and in [5] was 1 A450 class each time.

B12: muscarinic Ach receptor M4 (peptide)
peptide: QQYQQRQSVIFHKRAPEQAL
modifications: not checked
As for B12, the Classification in [12], in assay [7], in assay [3] and in assay [4] was 1 A450 class in each case.

B13: TRAF2 (peptide)
peptide: NSYVRDDAIFIKAIVDLTGL
modifications: not checked
As to B13, the Classification was 4 A450 class in [3], 1 A450 class in assay [15] and 2 A450 class in assay [4].

B14: NMDA R2C (peptide)
peptide: HPTDITGLPNLSDPSVSTVV
modifications: not checked
For the molecule B14, the Classification in assay [16] was 1 A450 class; in assay [17], 1 A450 class; in assay [18] it was 2 A450 class; in assay [19], 1 A450 class; in [20] it was 1 A450 class.

B15: GLUR7 (metabotropic glutamate receptor) (peptide)
peptide: VDPNSPAAKKKYVSYNNLVI
modifications: not checked
Turning to B15, the Classification in assay [21] turned out to be 1 A450 class; in assay [22], 1 A450 class; in assay [8], 2 A450 class.

B16: claudin 9 (peptide)
peptide: LGYSIPSRSGASGLDKRDYV
modifications: not checked
B16 came in with a Classification in assay [1] of 1 A450 class.

B17: CD6 (peptide)
peptide: SPQPDSTDNDDYDDISAA
modifications: not checked
Regarding B17, the Classification in [3] and in [4] was 1 A450 class each time.

B18: alpha-1-syntrophin (peptide)
peptide: IVFIIHSFLSAKVTRLGLLA
modifications: not checked
B18 came in with a Classification in assay [3] of 1 A450 class.

B19: claudin 10 (peptide)
peptide: GGEDFKTTNPSKQFDKNAYV
modifications: not checked
Regarding B19, the Classification in [16] and in assay [22] was 1 A450 class throughout.

B20: RA-GEF (ras/rap1A-assoc-GEF) (peptide)
peptide: PYQSQGFSTEEDEDEQVSAV
modifications: not checked
B20: the Classification was 1 A450 class in assay [23], 2 A450 class in assay [17] and 4 A450 class in assay [20].

B21: claudin 1 (peptide)
peptide: SYPTPRPYPKPAPSSGKDYV
modifications: not checked
As to B21, the Classification in [9] and in assay [24] was 1 A450 class in each case.

B22: CAPON (carboxyl-terminal PDZ ligand of neuronal nitric oxide synthase) mRNA (peptide)
peptide: LLNVLQRQELGDGLDDEIAV
modifications: not checked
Consider B22, for which the Classification in assay [12], in assay [7], in assay [3], in assay [4], in assay [8] and in assay [2] was 1 A450 class throughout.

B23: claudin 18 (peptide)
peptide: DGGARTEDEVQSYPSKHDYV
modifications: not checked
B23: in [1], the Classification turned out to be 1 A450 class.

The record behind these values is patent US20050282743A1, “Molecular interactions in cells” (Arbor Vita Corporation, priority 2001, published 2005).
